Like-named read-outs stand apart in the source and are kept apart here. Values belong to the binder of their own block, whether it stands above or below them. Bridge positions count the residues as written; N and C are the ends. Square brackets hold non-standard residues; d marks the D form. Primed or numbered codes have the meaning given here. Side chains are listed from the residue outwards. Ends that are not written are not given here. Gd^D = GdDOTAGA (gadolinium DOTAGA chelate); Bip = N[C@@H](Cc1ccc(-c2ccccc2)cc1)C(=O)O; Gd^T(3) = GdDTPA attached via thiourea; 1Nal = N[C@@H](Cc1cccc2ccccc12)C(=O)O; K(Gd^T)Gd^T = not defined here; Phg = N[C@H](C(=O)O)c1ccccc1; Dab = NCC[C@H](N)C(=O)O; Gd^T″ = GdDTPA-thiourea; Dap = NC[C@H](N)C(=O)O
Columns and labels:
Assay in all cases: dried collagen assay
[1] = molecular target: T1, human collagen type I, acid soluble, extracted from placenta (Sigma C7774) (human, UniProt P02452 162-1218; P08123 80-1119)
T1 construct: tissue extract, gelled and dried in wells; also called dried human collagen; h-Collagen

[2] = molecular target: T2, rat collagen, acid soluble, type I, rat tail (Upstate 08-115) (rat, UniProt P02454 152-1207; P02466 86-1125)
T2 construct: tissue extract, gelled and dried in wells; also called dried rat collagen

[3] = molecular target: T1, human collagen type I, acid soluble, …; remark: listed apart in the source
Method: An additional 90 μL is reserved in a HPLC glass vial as a measure of the total concentration.

T1 sequence (P02452 162-1218 limits assumed, chain 1 of 2): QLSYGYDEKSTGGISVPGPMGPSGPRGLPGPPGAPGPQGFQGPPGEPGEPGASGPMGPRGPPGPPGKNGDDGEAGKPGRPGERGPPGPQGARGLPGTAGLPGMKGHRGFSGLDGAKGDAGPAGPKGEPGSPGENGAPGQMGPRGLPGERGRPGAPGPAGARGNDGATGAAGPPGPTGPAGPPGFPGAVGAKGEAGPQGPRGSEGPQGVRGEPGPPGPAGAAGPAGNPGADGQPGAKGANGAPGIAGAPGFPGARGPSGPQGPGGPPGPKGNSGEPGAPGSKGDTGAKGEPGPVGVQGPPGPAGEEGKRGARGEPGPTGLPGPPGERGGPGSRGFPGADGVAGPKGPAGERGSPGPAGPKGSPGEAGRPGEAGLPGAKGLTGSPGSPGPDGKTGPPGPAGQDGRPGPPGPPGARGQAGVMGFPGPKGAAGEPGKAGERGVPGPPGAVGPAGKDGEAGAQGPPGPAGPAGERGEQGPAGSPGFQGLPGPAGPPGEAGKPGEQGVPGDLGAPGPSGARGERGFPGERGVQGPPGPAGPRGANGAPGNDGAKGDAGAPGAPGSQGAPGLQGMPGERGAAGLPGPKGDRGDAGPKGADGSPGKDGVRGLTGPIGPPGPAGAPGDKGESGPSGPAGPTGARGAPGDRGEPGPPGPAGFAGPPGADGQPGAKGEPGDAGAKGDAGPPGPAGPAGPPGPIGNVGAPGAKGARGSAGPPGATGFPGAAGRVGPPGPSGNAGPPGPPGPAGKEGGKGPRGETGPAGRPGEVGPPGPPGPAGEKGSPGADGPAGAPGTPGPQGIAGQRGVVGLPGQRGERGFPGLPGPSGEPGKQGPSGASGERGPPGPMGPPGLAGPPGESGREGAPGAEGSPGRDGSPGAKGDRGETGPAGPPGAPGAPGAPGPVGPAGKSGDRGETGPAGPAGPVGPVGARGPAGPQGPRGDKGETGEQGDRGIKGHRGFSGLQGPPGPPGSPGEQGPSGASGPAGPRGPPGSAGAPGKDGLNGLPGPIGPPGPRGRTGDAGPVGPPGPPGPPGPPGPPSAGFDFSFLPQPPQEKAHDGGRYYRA
T1 sequence (P08123 80-1119 limits assumed, chain 2 of 2): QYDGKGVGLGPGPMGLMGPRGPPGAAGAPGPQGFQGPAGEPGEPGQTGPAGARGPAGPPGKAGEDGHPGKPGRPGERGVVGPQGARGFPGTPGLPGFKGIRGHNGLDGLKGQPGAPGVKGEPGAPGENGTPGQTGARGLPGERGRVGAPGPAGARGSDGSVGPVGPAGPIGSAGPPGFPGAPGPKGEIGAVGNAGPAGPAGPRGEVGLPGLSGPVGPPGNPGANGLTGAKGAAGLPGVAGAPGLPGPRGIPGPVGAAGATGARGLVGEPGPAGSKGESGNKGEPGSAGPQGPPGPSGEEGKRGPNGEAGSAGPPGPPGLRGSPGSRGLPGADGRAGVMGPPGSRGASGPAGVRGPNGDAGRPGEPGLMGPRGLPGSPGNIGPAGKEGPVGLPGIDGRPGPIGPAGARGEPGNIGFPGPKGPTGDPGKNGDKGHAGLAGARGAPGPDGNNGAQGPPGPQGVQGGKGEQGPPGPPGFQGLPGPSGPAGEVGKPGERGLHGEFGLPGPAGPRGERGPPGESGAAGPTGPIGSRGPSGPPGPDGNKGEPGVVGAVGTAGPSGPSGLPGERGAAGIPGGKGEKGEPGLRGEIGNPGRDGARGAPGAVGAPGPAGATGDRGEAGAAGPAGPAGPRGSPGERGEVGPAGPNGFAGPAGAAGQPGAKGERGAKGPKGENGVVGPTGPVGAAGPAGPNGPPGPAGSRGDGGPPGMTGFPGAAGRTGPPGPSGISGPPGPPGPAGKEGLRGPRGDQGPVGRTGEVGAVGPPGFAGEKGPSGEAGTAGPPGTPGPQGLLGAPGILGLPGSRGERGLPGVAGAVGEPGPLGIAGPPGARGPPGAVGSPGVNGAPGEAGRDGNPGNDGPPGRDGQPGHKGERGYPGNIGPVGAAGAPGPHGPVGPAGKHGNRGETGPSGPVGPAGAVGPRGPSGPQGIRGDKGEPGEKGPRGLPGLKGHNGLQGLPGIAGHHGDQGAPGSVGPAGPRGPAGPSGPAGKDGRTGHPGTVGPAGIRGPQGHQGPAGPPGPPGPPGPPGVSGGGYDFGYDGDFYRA
T2 sequence (P02454 152-1207, chain 1 of 2): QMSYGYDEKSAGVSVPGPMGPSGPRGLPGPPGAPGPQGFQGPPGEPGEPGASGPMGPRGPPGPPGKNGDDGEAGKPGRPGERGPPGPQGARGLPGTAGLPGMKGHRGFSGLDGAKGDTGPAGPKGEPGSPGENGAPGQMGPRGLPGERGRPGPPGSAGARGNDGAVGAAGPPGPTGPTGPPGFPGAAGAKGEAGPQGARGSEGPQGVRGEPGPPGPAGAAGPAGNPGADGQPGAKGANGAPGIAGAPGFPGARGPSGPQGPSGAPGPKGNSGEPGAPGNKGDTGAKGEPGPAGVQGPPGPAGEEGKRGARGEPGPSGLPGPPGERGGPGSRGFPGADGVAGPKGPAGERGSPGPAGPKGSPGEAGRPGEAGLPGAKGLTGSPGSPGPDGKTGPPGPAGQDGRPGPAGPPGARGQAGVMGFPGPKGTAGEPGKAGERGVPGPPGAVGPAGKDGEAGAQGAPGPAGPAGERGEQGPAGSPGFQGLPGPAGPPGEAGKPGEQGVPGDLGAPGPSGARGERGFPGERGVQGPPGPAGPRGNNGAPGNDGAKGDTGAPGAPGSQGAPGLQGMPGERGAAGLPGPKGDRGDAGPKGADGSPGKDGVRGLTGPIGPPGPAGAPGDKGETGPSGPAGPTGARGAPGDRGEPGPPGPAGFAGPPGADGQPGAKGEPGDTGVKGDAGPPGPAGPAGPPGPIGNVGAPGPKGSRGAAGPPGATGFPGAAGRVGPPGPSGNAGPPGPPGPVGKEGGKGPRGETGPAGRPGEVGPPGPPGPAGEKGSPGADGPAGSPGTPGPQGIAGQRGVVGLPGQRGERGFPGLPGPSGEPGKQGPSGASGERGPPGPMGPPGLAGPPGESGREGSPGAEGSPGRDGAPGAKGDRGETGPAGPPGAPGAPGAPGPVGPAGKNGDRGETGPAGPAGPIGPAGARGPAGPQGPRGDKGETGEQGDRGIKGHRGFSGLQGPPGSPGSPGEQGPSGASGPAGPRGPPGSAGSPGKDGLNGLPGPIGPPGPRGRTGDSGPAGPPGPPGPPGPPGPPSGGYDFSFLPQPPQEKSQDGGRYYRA
T2 sequence (P02466 86-1125, chain 2 of 2): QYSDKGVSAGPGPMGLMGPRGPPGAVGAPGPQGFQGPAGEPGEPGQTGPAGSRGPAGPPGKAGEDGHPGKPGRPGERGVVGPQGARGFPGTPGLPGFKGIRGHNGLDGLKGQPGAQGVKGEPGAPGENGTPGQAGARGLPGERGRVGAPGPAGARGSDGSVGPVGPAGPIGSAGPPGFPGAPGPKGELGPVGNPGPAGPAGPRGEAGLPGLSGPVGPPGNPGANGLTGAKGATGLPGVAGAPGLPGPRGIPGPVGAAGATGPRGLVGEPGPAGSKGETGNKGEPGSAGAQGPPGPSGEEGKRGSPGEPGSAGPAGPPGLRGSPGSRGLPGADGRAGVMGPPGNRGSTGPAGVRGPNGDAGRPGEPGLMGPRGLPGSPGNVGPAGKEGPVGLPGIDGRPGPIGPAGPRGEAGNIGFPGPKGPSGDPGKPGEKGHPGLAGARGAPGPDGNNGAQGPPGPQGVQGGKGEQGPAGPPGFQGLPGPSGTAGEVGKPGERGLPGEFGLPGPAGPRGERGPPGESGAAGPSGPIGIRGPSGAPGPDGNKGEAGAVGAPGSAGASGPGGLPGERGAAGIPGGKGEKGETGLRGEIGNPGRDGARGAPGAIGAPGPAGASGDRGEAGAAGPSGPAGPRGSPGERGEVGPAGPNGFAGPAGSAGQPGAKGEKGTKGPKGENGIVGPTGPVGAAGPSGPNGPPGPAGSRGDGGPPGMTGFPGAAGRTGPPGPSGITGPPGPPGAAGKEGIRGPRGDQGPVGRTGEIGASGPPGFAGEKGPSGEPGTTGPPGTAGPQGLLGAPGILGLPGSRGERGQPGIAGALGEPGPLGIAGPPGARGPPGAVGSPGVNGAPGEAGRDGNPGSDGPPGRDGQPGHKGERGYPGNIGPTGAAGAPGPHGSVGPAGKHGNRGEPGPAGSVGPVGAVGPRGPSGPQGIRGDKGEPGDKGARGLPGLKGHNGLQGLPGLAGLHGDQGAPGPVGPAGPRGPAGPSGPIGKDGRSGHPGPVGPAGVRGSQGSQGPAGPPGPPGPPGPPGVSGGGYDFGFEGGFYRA

B1: Compound ID 1010 (peptide)
peptide: {Gd^T″}-GK([Gly-Gd^T″])WHCYTK(Gd^T″)FPHHYCVYYY
modifications: disulfide 5-14 (inferred)
% bound [1]: 92% | % bound [2]: 89%

B2: Compound ID 1007 (peptide)
peptide: {Gd^T″}-G[Dab]([Gly-Gd^T″])WHCYTK(Gd^T″)FPHHYCVY[Bip]
modifications: disulfide 5-14
% bound [1]: 87% | % bound [2]: 92%

B3: Compound ID 996 (peptide)
peptide: {Gd^T″}-GK([Gly-Gd^T″])WHCYTYFPHHYCLYGK(Gd^T″)
modifications: disulfide 5-14 (inferred)
% bound [1]: 76% | % bound [2]: 67%

B4: Compound ID 985 (peptide)
peptide: {Gd^T″}-GK([Gly-Gd^T″])WHCYTYFPHHYCLYFK(Gd^T″)
modifications: disulfide 5-14 (inferred); not fully specified (C-terminus)
% bound [1]: 56% | % bound [2]: 68%

B6: Compound ID 988 (peptide)
peptide: {Gd^T″}-GK([Gly-Gd^T″])WHCYTYFPHHYCLY[dY]K(Gd^T″)
modifications: disulfide 5-14 (inferred); not fully specified (C-terminus)
% bound [1]: 69% | % bound [2]: 71%

B8: Compound ID 974 (peptide)
peptide: {Gd^T″}-GK([Gly-Gd^T″])WHCYTYFPHHYCVYGK(Gd^T″)
modifications: disulfide 5-14 (inferred); not fully specified (C-terminus)
% bound [1]: 71% | % bound [2]: 69%

B9: Compound ID 987 (peptide)
peptide: {Gd^T″}-GK([Gly-Gd^T″])WHCYTYFPHHYCLYYK(Gd^T″)
modifications: disulfide 5-14 (inferred); not fully specified (C-terminus)
% bound [1]: 62% | % bound [2]: 68%

B10: Compound ID 975 (peptide)
peptide: {Gd^T″}-GK([Gly-Gd^T″])WHCYTYFPHHYCVYYK(Gd^T″)
modifications: disulfide 5-14 (inferred); not fully specified (C-terminus)
% bound [1]: 70% | % bound [2]: 64%

B11: Compound ID 995 (peptide)
peptide: {Gd^T″}-GK([Gly-Gd^T″])WHCYTK(Gd^T″)FPHHYCLYGK(Gd^T″)
modifications: disulfide 5-14 (inferred)
% bound [1]: 51% | % bound [2]: 42%

B12: Compound ID 976 (peptide)
peptide: {Gd^T″}-GK([Gly-Gd^T″])WHCTTYFPHHYCLYYK(Gd^T″)
modifications: disulfide 5-14 (inferred); not fully specified (C-terminus)
% bound [1]: 62% | % bound [2]: 57%

B15: Compound ID 1008 (peptide)
peptide: {Gd^T″}-K(Gd^T″)WHCYTK(Gd^T″)FPHHYCVY[Bip]
modifications: disulfide 4-13
% bound [1]: 94% | % bound [2]: 93%

B16: Compound ID 981 (peptide)
peptide: {Gd^T″}-GYK([Tyr-Gly-Gd^T″])WHCTTYFPHHYCLYG
modifications: disulfide 6-15 (inferred); not fully specified (C-terminus)
% bound [1]: 73% | % bound [2]: 81%

B17: Compound ID 984 (peptide)
peptide: {Gd^T″}-GHK([His-Gly-Gd^T″])WHCTTYFPHHYCLYG
modifications: disulfide 6-15 (inferred); not fully specified (C-terminus)
% bound [1]: 67% | % bound [2]: 69%

B20: Compound ID 960 (peptide)
peptide: {Gd^T″}-K(Gd^T″)K(K(Gd^T)Gd^T)GQWHCTTYFPHHYCLYG
modifications: disulfide 7-16 (inferred); reading uncertain
% bound [1]: 30% | % bound [2]: 34%

B21: Compound ID 1016 (peptide)
peptide: {Gd^D}-K(Gd^D)K(Gd^D)AWHCYTYFPHHYCVYG
modifications: disulfide 6-15 (inferred)
% bound [1]: 48% | % bound [2]: 50%

B23: Compound ID 1017 (peptide)
peptide: {Gd^D}-K(Gd^D)K(Gd^D)LWHCYTYFPHHYCVYG
modifications: disulfide 6-15 (inferred)
% bound [1]: 25% | % bound [2]: 18%

B24: Compound ID 961 (peptide)
peptide: {Gd^D}-GK([Gly-Gd^D])QWHCTTYFPHHYCLYG
modifications: disulfide 6-15 (inferred)
% bound [1]: 54% | % bound [2]: 55%

B27: Compound ID 977 (peptide)
peptide: {Gd^T(3)}-GK([Gly-Gd^T(3)])WHCTTYFPHHYCLY[Bip]K(Gd^T(3))
modifications: disulfide 5-14; not fully specified (C-terminus)
% bound [1]: 40% | % bound [2]: 43%

B30: Compound ID 1015 (peptide)
peptide: {Gd^D}-K(Gd^D)K(Gd^D)GWHCYTYFPHHYCTYG
modifications: disulfide 6-15 (inferred)
% bound [1]: 29% | % bound [2]: 30%

B32: SEQ ID NO 5 (peptide)
peptide: NWKCWGVVKWECIWA
modifications: disulfide 4-12 (inferred)
notes: cyclic, disulfide
% bound [3]: 24%

B33: Compound ID 1002 (peptide)
peptide: {Gd^T″}-[Dap](Gd^T″)[Dap]([Dap-Gd^T″-Gd^T″])WHCYTYFPHHYCVYG
modifications: disulfide 5-14; also: X2: inner Dap bears two Gd^T
% bound [1]: 44% | % bound [2]: 45%

B35: Compound ID 1004 (peptide)
peptide: {Gd^T″}-GK([Gly-Gd^T″])WHCYTK(Gd^T″)FPHHYCVY[Bip]
modifications: disulfide 5-14
% bound [1]: 91% | % bound [2]: 90%

B36: Compound ID 1012 (peptide)
peptide: {Gd^T″}-GK([Gly-Gd^T″])WHCYTK(Gd^T″)FPHHYCK(Gd^T″)Y[Bip]
modifications: disulfide 5-14
% bound [1]: 91% | % bound [2]: 92%

B37: Compound ID 1006 (peptide)
peptide: {Gd^T″}-GK([Gly-Gd^T″])WHCYT[Dap](Gd^T″)FPHHYCVY[Bip]
modifications: disulfide 5-14
% bound [1]: 89% | % bound [2]: 87%

Next, values leading:

% bound [1]: 67% | % bound [2]: 74%
B5: Compound ID 989 (peptide)
peptide: {Gd^T″}-GK([Gly-Gd^T″])WHCYTYFPHHYCLYVK(Gd^T″)
modifications: disulfide 5-14 (inferred); not fully specified (C-terminus)

% bound [1]: 75% | % bound [2]: 70%
B7: Compound ID 993 (peptide)
peptide: {Gd^T″}-GQWHCYTK(Gd^T″)FPHHYCLYGK(Gd^T″)
modifications: disulfide 5-14 (inferred); not fully specified (C-terminus)

% bound [1]: 86% | % bound [2]: 84%
B13: Compound ID 994 (peptide)
peptide: {Gd^T″}-GQWHCYTYFPHHYCLYGK(Gd^T″)
modifications: disulfide 5-14 (inferred); not fully specified (C-terminus)

% bound [1]: 93% | % bound [2]: 96%
B14: Compound ID 1009 (peptide)
peptide: {Gd^T″}-GK([Gly-Gd^T″])WHCYTK(Gd^T″)FPHHYCVY[Bip]R
modifications: disulfide 5-14

% bound [1]: 58% | % bound [2]: 59%
B18: Compound ID 983 (peptide)
peptide: {Gd^T″}-GFK([Phe-Gly-Gd^T″])WHCTTYFPHHYCLYG
modifications: disulfide 6-15 (inferred); not fully specified (C-terminus)

% bound [1]: 40% | % bound [2]: 47%
B19: Compound ID 982 (peptide)
peptide: {Gd^T″}-GVK([Val-Gly-Gd^T″])WHCTTYFPHHYCLYG
modifications: disulfide 6-15 (inferred); not fully specified (C-terminus)

% bound [1]: 53% | % bound [2]: 55%
B22: Compound ID 1018 (peptide)
peptide: {Gd^D}-K(Gd^D)K(Gd^D)YWHCYTYFPHHYCVYG
modifications: disulfide 6-15 (inferred)

% bound [1]: 90% | % bound [2]: 95%
B25: Compound ID 1005 (peptide)
peptide: {Gd^T″}-GK([Gly-Gd^T″])WHCYT[Dab](Gd^T″)FPHHYCVY[Bip]
modifications: disulfide 5-14

% bound [1]: 11% | % bound [2]: 14%
B26: Compound ID 937 (peptide)
peptide: {Gd^T″}-AWHCTTRFPAHYCLYG
modifications: disulfide 4-13 (inferred)

% bound [1]: 60% | % bound [2]: 67%
B28: Compound ID 986 (peptide)
peptide: {Gd^T(3)}-GK([Gly-Gd^T(3)])WHCYTYFPHHYCLY[Phg]K(Gd^T(3))
modifications: disulfide 5-14; not fully specified (C-terminus)

% bound [1]: 51% | % bound [2]: 36%
B29: Compound ID 955 (peptide)
peptide: {Gd^T″}-GQWHCTTRFPHHYCLYGK(K(Gd^T)Gd^T)
modifications: disulfide 5-14 (inferred); reading uncertain

% bound [1]: 75% | % bound [2]: 64%
B31: Compound ID 992 (peptide)
peptide: {Gd^T(3)}-GK([Gly-Gd^T(3)])WHCYTYFPHH[1Nal]CLYG
modifications: disulfide 5-14; not fully specified (C-terminus)

% bound [1]: 83% | % bound [2]: 81%
B34: Compound ID 1001 (peptide)
peptide: {Gd^D}-GK([Gly-Gd^D])WHCTTK(Gd^D)FPHHYCLY[Bip]
modifications: disulfide 5-14

Reference: patent publication US20080044360A1 (COLLAGEN MEDICAL, published 2008)
